Values of other authors, collected in PMC8472222.
pKd: −log10 of the molar value.

Molecular target: Rad57 (Saccharomyces cerevisiae) (UniProt P25301)
Sequence of UniProt P25301 (P25301 whole entry): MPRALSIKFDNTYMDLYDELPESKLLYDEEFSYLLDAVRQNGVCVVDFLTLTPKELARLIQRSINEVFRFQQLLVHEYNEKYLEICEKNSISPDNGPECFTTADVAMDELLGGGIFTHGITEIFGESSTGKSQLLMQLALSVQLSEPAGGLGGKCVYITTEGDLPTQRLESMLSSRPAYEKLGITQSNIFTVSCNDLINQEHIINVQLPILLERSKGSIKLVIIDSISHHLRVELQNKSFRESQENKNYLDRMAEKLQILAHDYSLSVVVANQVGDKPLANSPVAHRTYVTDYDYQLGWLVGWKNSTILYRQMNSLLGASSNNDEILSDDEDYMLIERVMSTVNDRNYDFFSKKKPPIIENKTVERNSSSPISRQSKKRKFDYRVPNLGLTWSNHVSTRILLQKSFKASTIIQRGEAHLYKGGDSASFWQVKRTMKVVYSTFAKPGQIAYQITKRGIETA

- pKd: > 9.70
Substance: Rad55 (from UniProt P38953)
